Square brackets hold non-standard residues; d marks the D form. Primed or numbered codes have the meaning given here. Ends that are not written are not given here. PEG12″ = polyethylene glycol with 12 units (PEG-12)
Columns and labels:
[1] = target: ProLink tagged human APJ (Apelin Receptor) in CHO-K1 AGTRL1 β-Arrestin cells (human, UniProt P35414 1-380); experiment: cell-based or functional assay
[2] = target: T1, Apelin Receptor (APJ) stably overexpressed in CHO-K1 AGTRL1 Gi cells (UniProt P35414 1-380, limits assumed); experiment: cell-based or functional assay
T1 sequence (looked up): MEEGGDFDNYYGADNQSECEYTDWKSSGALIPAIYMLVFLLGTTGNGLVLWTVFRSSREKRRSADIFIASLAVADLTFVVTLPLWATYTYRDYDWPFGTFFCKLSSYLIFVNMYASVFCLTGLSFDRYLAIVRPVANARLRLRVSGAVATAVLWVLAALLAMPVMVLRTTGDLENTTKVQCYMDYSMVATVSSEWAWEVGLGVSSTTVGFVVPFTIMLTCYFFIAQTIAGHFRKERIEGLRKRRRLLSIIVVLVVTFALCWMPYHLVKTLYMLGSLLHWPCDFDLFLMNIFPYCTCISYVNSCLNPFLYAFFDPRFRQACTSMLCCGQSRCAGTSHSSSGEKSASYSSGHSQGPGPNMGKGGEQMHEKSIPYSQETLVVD

Row | Binder | β-Arrestin recruitment, Percent of Apelin-13 Control Activity (10 µM peptide) [1] | inhibition of forskolin-induced cAMP, Percent of Pyr-Apelin-13 Control Activity (10 µM peptide) [2]
1 | RRMMGMV [SEQ ID NO: 56] | 0% | -2%
2 | RXMMGMVFQSLCGA ((Aib) = aminoisobutyric acid at position 2; C-terminal (dA) = D-alanine) [SEQ ID NO: 34] | 8% | 61%
3 | RRMVFQCLEG[dA] [SEQ ID NO: 23] | 0% | -4%
4 | RRMMGMVFQ [SEQ ID NO: 58] | 0% | 5%
5 | RRMMGMVFQSLEG[dA] [SEQ ID NO: 39] | 0% | -13%
6 | RMMGMVFQSL [SEQ ID NO: 53] | 1% | 6%
7 | RMMGMVFQS [SEQ ID NO: 52] | 0% | 15%
8 | RRMMGMVFQS [SEQ ID NO: 59] | 0% | -2%
9 | RRMEVYQCLEG[dA] [SEQ ID NO: 32] | 0% | 4%
10 | RMMGMVFQSLCG[dA] [SEQ ID NO: 54] | 1% | 20%
11 | RREMVYQCLCG[dA] (cysteine pairing not given here) [SEQ ID NO: 25] | -1% | 3%
12 | RRLLGLVFQSLCG[dA] [SEQ ID NO: 33] | 9% | 27%
13 | RRMMGMVF [SEQ ID NO: 57] | 0% | -1%
14 | RRMMGMVYQCLCG[dA] (cysteine pairing not given here) [SEQ ID NO: 10] | 3% | 70%
15 | RRMMGMVAQCLEG[dA] [SEQ ID NO: 30] | -1% | 31%
16 | RRMGYQCLEG[dA] [SEQ ID NO: 28] | -1% | 3%
17 | RXLLGLVFQSLCGA ((Aib) = aminoisobutyric acid at position 2; C-terminal (dA) = D-alanine) [SEQ ID NO: 35] | 17% | 8%
18 | RRMMGMVFQSLSG[dA] [SEQ ID NO: 17] | 10% | 26%

Row | Binder | β-Arrestin recruitment, Percent of Apelin-13 Control Activity (10 µM peptide) [1] | inhibition of forskolin-induced cAMP, Percent of Pyr-Apelin-13 Control Activity (10 µM peptide) [2]
19 | RRMMGM [SEQ ID NO: 55] | 1% | -7%
20 | Ac-RRMMGMVFQSLCG[dA] [SEQ ID NO: 61] | 5% | 1%
21 | RRMMGMVYQCLEG[dA] [SEQ ID NO: 29] | 0% | 21%
22 | RRMMGMVFQSL [SEQ ID NO: 60] | 0% | 16%
23 | RRMMGMVFQCLCG[dA]K(PEG12″) (cysteine pairing not given here) [SEQ ID NO: 21] | 1% | 34%
24 | RRMEVYQCLCG[dA] (cysteine pairing not given here; also: places D-Ala at position 13) [SEQ ID NO: 31] | 0% | 2%
25 | RRXXGXVFQCLCGA ((Nle) = norleucine at positions 3, 4 and 6; C-terminal (dA) = D-alanine) [SEQ ID NO: 18] | 1% | 30%
26 | Ac-RRMMGMVFQSLCG[dA]-NH2 [SEQ ID NO: 63] | 9% | 21%
27 | RRMMGMVEQSLCG[dA] [SEQ ID NO: 38] | 0% | 12%
28 | RRMVYQCLCG[dA] (cysteine pairing not given here) [SEQ ID NO: 22] | 0% | 62%
29 | RRMMGMVFQCLCG[dA] (cysteine pairing not given here) [SEQ ID NO: 8] | 17% | 64%
30 | RRMAYQCLEG[dA] [SEQ ID NO: 27] | -1% | 9%
31 | RRMMGMVFQCLSG[dA] [SEQ ID NO: 16] | 0% | –
32 | RREMVYQCLEG[dA] [SEQ ID NO: 26] | 0% | 29%
33 | KRRMMGMVFQCLCGA ((PEG12) at the N-terminal K; C-terminal (dA) = D-alanine) [SEQ ID NO: 20] | 1% | 37%
34 | RRMVYQCLEG[dA] [SEQ ID NO: 24] | -1% | 16%
35 | RRMMGMVFQSLCG[dA]-NH2 [SEQ ID NO: 62] | 2% | 27%
36 | RRMVFQCLCG[dA] (cysteine pairing not given here) [SEQ ID NO: 19] | 1% | 27%

Source: patent US20230218710A1 (COHBAR, published 2023)
